In the Immune Epitope Database (IEDB):

Experiments:
HLA-B*40:01 [1] = assay: IEDB peptide-MHC binding, purified MHC/competitive/radioactivity; filed as Kd, often an IC50 or EC50 that approximates it; ≥ and ≤ were set here for values at or beyond the usual limits of such assays
HLA-B*44:02 = assay: as above
HLA-B*44:03 = assay: as above
HLA-A*01:01 = assay: as above
HLA-A*26:01 = assay: as above
HLA-A*29:02 = assay: as above
HLA-A*30:01 = assay: as above
HLA-A*30:02 = assay: as above
HLA-A*32:01 = assay: as above
HLA-A*02:01 [2] = assay: IEDB peptide-MHC binding, purified MHC/competitive/fluorescence; ≥ and ≤ were set here for values at or beyond the usual limits of such assays
HLA-A*24:02 = assay: as above
HLA-A*02:02 = assay: IEDB peptide-MHC binding, purified MHC/competitive/radioactivity; filed as Kd, often an IC50 or EC50 that approximates it; ≥ and ≤ were set here for values at or beyond the usual limits of such assays; conditions: source organism: Vaccinia virus WR
HLA-A*02:03 = assay: as above; conditions: source organism: Vaccinia virus WR
HLA-A*02:06 = assay: as above; conditions: source organism: Vaccinia virus WR
HLA-A*02:01 [3] = assay: IEDB peptide-MHC binding, purified MHC/competitive/fluorescence; filed as Kd, often an IC50 or EC50 that approximates it; ≥ and ≤ were set here for values at or beyond the usual limits of such assays
HLA-A*11:01 = assay: IEDB peptide-MHC binding, purified MHC/direct/fluorescence; filed as Kd, often an IC50 or EC50 that approximates it; ≥ and ≤ were set here for values at or beyond the usual limits of such assays; conditions: source organism: SARS-CoV1
HLA-B*39:01 = assay: IEDB peptide-MHC binding, purified MHC/competitive/fluorescence; filed as Kd, often an IC50 or EC50 that approximates it; ≥ and ≤ were set here for values at or beyond the usual limits of such assays; conditions: source organism: Escherichia coli str. K-12 substr. MG1655
HLA-B*40:01 [4] = assay: IEDB peptide-MHC binding, purified MHC/direct/fluorescence; filed as Kd, often an IC50 or EC50 that approximates it; ≥ and ≤ were set here for values at or beyond the usual limits of such assays
HLA-A*69:01 = assay: as above; conditions: source organism: Homo sapiens
HLA-B*07:02 = assay: as above; conditions: source organism: Homo sapiens
[5] = source organism: Dengue virus 1 Brazil/97-11/1997
[6] = source organism: Dengue virus 2 Jamaica/1409/1983
[7] = source organism: Mammarenavirus guanaritoense
[8] = source organism: Zaire ebolavirus
[9] = source organism: Mammarenavirus brazilense
[10] = source organism: Dengue virus 4 Philippines/H241/1956
[11] = source organism: Lymphocytic choriomeningitis virus (strain Armstrong)
[12] = source organism: Vaccinia virus WR
[13] = source organism: Dengue virus 3 Martinique/1243/1999

FEKQLGQIML
Kd (HLA-B*40:01 [1]; [5]): 144 nM

LETLLLLTL
Kd (HLA-B*40:01 [1]; [6]): 5.76 nM
Kd (HLA-B*44:02; [6]): 609 nM
Kd (HLA-B*44:03; [6]): 1340 nM

GTDPYRPSF
Kd (HLA-A*01:01; [7]): 7150 nM
Kd (HLA-A*26:01; [7]): ≥ 77900 nM
Kd (HLA-A*29:02; [7]): 11000 nM
Kd (HLA-A*30:01; [7]): ≥ 30300 nM
Kd (HLA-A*30:02; [7]): 5280 nM
Kd (HLA-A*32:01; [7]): 2430 nM

DKIDQIIHD
IC50 (HLA-A*02:01 [2]; [8]): ≥ 387000 nM

FEIMDLEKRH
Kd (HLA-B*40:01 [1]; [6]): 590 nM

VYQVNNLEE
IC50 (HLA-A*24:02; [8]): ≥ 254000 nM

ELLGYCVSLF
Kd (HLA-A*01:01; [9]): 3600 nM
Kd (HLA-A*26:01; [9]): 315 nM
Kd (HLA-A*29:02; [9]): 9340 nM
Kd (HLA-A*30:01; [9]): 1880 nM
Kd (HLA-A*30:02; [9]): 17400 nM
Kd (HLA-A*32:01; [9]): 11000 nM

KEVALLRTY
Kd (HLA-B*44:02; [10]): 2.63 nM
Kd (HLA-B*44:03; [10]): 63.6 nM

VHEHDQIGD
IC50 (HLA-A*24:02; source organism: Variola virus): 1870 nM

EELPDTIETL
Kd (HLA-B*40:01 [1]; [5]): 166 nM

FTSDVKAAVI
Kd (HLA-A*01:01; [11]): 431 nM
Kd (HLA-A*26:01; [11]): 6430 nM
Kd (HLA-A*29:02; [11]): ≥ 30600 nM
Kd (HLA-A*30:01; [11]): 4970 nM
Kd (HLA-A*30:02; [11]): ≥ 63000 nM
Kd (HLA-A*32:01; [11]): ≥ 69900 nM

KELKCGSGI
Kd (HLA-B*40:01 [1]; [6]): 206 nM
Kd (HLA-B*44:02; [6]): 678 nM

NAPDDLVLF
IC50 (HLA-A*24:02; [8]): ≥ 107000 nM

IFINKLNGA
IC50 (HLA-A*02:01 [2]; source organism: Vaccinia virus Copenhagen): 3280 nM

VMYAFTTPL
Kd (HLA-A*02:02): 0.573 nM
Kd (HLA-A*02:03): 1.28 nM
Kd (HLA-A*02:06): 5.71 nM
Kd (HLA-A*32:01; [12]): 0.291 nM

LEKAANVQW
Kd (HLA-B*44:02; [10]): 58.4 nM
Kd (HLA-B*44:03; [10]): 392 nM

FVNFNSVKNL
Kd (HLA-A*02:01 [3]; source organism: Vaccinia virus L-IPV): 489 nM
Kd (HLA-A*02:02): 2020 nM
Kd (HLA-A*02:03): 318 nM
Kd (HLA-A*02:06): 2200 nM

DRYPANAIV
Kd (HLA-A*11:01): ≥ 25400 nM

DLMGVPYCNY
Kd (HLA-A*01:01; [11]): 4550 nM
Kd (HLA-A*26:01; [11]): 163 nM
Kd (HLA-A*29:02; [11]): 147 nM
Kd (HLA-A*30:01; [11]): ≥ 68000 nM
Kd (HLA-A*30:02; [11]): 544 nM
Kd (HLA-A*32:01; [11]): ≥ 53000 nM

AHGSTLAGV
IC50 (HLA-A*02:01 [2]; [8]): 59900 nM

SKGWHDWQQV
Kd (HLA-A*32:01; [13]): 1400 nM

FHNDSTPRY
Kd (HLA-B*39:01): 3470 nM

TTFAEGVVA
IC50 (HLA-A*02:01 [2]; [8]): 50200 nM

KIDQIIHDF
IC50 (HLA-A*02:01 [2]; [8]): 66400 nM
IC50 (HLA-A*24:02; [8]): 46900 nM

LEENMEVEI
Kd (HLA-B*40:01 [1]; [10]): 82.6 nM

GEEFFHQYL
Kd (HLA-B*40:01 [4]; source organism: Mammarenavirus juninense): 10.2 nM

LLGPVIGML
Kd (HLA-A*02:01 [3]; source organism: Escherichia coli 536): 3.4 nM

STMDVNHPI
Kd (HLA-A*32:01; [12]): 7.42 nM

KTINYSFFL
Kd (HLA-A*32:01; [12]): ≤ 1 nM

GEIGAIALDF
Kd (HLA-B*44:02; [13]): 13.6 nM
Kd (HLA-B*44:03; [13]): 8.92 nM

QVKDEKLNL
Kd (HLA-A*02:01 [3]; source organism: Variola virus): 324 nM

DFLLQRWGG
IC50 (HLA-A*02:01 [2]; [8]): 16800 nM

REDQWCGSLI
Kd (HLA-B*44:02; [6]): 373 nM
Kd (HLA-B*44:03; [6]): 888 nM

LFLPKLVVG
IC50 (HLA-A*02:01 [2]; [8]): 35300 nM
IC50 (HLA-A*24:02; [8]): 1560 nM

CEPRSGIDF
Kd (HLA-B*44:03; [10]): 901 nM

HTSGPSVMA
IC50 (HLA-A*02:01 [2]; source organism: Sudan ebolavirus): ≥ 203000 nM

DAYRRIHSL
Kd (HLA-A*69:01): 119 nM
Kd (HLA-B*07:02): 16400 nM

MENKAWLVH
Kd (HLA-B*44:03; source organism: Dengue virus 2 16681-PDK53): 168 nM

DECEFELAL
Kd (HLA-B*40:01 [4]; source organism: Mycobacterium tuberculosis): 803 nM

EFSRSILWDY
Kd (HLA-A*01:01; [7]): 748 nM
Kd (HLA-A*26:01; [7]): 10300 nM
Kd (HLA-A*29:02; [7]): 1130 nM
Kd (HLA-A*30:01; [7]): 1400 nM
Kd (HLA-A*30:02; [7]): 210 nM
Kd (HLA-A*32:01; [7]): ≥ 21500 nM

DNSTHNTPV
IC50 (HLA-A*02:01 [2]; [8]): ≥ 456000 nM
